Measured values reported in US20220177583A1.
Blank lines part the entries; values can stand above or below the binder they belong to.

Tests used:
[1] = target: T1, mouse CLDN6 fused to GFP, expressed on engineered HEK293T cells (mouse) (UniProt Q9Z262); assay: FACS, 293T clone with mouse CLDN6
T1 sequence (looked up): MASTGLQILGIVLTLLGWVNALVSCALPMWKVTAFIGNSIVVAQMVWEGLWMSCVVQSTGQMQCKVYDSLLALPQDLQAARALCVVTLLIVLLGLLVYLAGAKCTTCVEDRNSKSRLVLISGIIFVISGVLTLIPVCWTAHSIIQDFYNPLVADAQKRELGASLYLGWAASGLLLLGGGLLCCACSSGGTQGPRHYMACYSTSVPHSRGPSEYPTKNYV

[2] = target: human CLDN6 fused to GFP, expressed on engineered HEK293T cells (human) (UniProt P56747); assay: FACS, 293T clone with human CLDN6, 0.3 ug Ab
[3] = target: human CLDN6 fused to GFP, expressed on engineered HEK293T cells (human) (UniProt P56747); assay: FACS, 293T clone with human CLDN6, 1.5 ug Ab
[4] = target: human CLDN6 fused to GFP, expressed on engineered HEK293T cells (human) (UniProt P56747); assay: FACS on 293T CLDN6 mGFP Clone A11 cells, scFv followed by secondary antibody; number from the data table under the bars
[5] = target: human CLDN6 fused to GFP, expressed on engineered HEK293T cells (human) (UniProt P56747); assay: KinExA 4000, cell-based equilibrium titration; Cell Model HEK293T CLDN6-mGFP A11, Cells Detached by Versene; Equilibrium Curves 500pM, 10nM

B1: AB4-chim (antibody, V domains shown)
VH: QVQLQQSGAELARPGASVKMSCKASGYTFTSYTMHWIKQRPGQGQEWIGYINPSSTYTHYIKKFKDKATLTADKSSSTAYMQLRSLTSEDSAVYYCSRGELGGFAYWGQGTLVTVSA
VL: DVVMTQTPLSLPVSLGDQASISCRSSQSLVHSDGNTYLNWYLQKPGQSPKLLIYKVSNRFSGVPDRFSGSGSGTDFTLKIRRVEAEDLGVYFCSQSTHVPYTFGGGTKLEIK
FACS signal [1]: 3640
FACS signal [2]: 176000
FACS signal [3]: 327000

B2: AB1-11 scFv (scFv)
scFv: DIQLTQSPSSLSASVGDRVTMTCTASSSVSSTYFHWYQQKPGKAPKLWIYSTSNLASGVPSRFSGSGSGTDYTLTISSMQPEDAATYYCHQYHRSPLTFGQGTKLEIKGGGGSGGGGSGGGGSQVQLVQSGAEVKKPGASVKMSCKASGYTFTTYTMHWVRQAPGQGLEWIGFINPSSGYTDYAQKFQGRVTLTADKSTSTVYMELSSLRSEDTAVYYCANGDYYVAYWGQGTLVTVSS
FL4H Singlets in Viable cells [4]: 125000

B3: AB3-7 scFv (scFv)
scFv: DIQMTQSPSSLSASVGDRVTITCRISENIYSYLAWYQQKPGKAPKLLVYNAKILVEGVPSRFSGSGSGTDFTLTISSLQPEDFGTYYCQHHYTVPWTFGQGTKLEIKGGGGSGGGGSGGGGSEVQLLESGGGLVQPGGSMRLSCAASGFTFSNYWMNWVRQAPGKGLEWVAQIRLKSDNYATHYADSVKGRFTISRDDSKNTVYLQMNSLRAEDTGVYYCNDGPPSGSWGQGTLLTVSS
FL4H Singlets in Viable cells [4]: 132000

B4: AB3-7 conjugated to MC-VC-PAB-MMAE (conventional) (antibody, V domains shown)
VH: EVQLLESGGGLVQPGGSMRLSCAASGFTFSNYWMNWVRQAPGKGLEWVAQIRLKSDNYATHYADSVKGRFTISRDDSKNTVYLQMNSLRAEDTGVYYCNDGPPSGSWGQGTLLTVSS
VL: DIQMTQSPSSLSASVGDRVTITCRISENIYSYLAWYQQKPGKAPKLLVYNAKILVEGVPSRFSGSGSGTDFTLTISSLQPEDFGTYYCQHHYTVPWTFGQGTKLEIK
modifications: MC-VC-PAB-MMAE conjugated to the antibody, heterogeneous (conventional); sites not stated
Kd [5]: 6.68 nM

B6: AB3-7 conjugated to MC-VC-PAB-MMAE (D4 technology) (antibody, V domains shown)
VH: B4 VH
VL: B4 VL
modifications: MC-VC-PAB-MMAE conjugated to the antibody, substantially 4 drugs per antibody (D4); sites not stated
Kd [5]: 5.34 nM

B8: AB3-7 conjugated to MC-VC-PAB-DXD (antibody, V domains shown)
VH: B4 VH
VL: B4 VL
modifications: MC-VC-PAB-DXD conjugated to the antibody; sites not stated
Kd [5]: 3.42 nM

B11: AB3-7 conjugated to MC-GGFG-DXD (antibody, V domains shown)
VH: B4 VH
VL: B4 VL
modifications: MC-GGFG-DXD conjugated to the antibody; sites not stated
Kd [5]: 3.01 nM

The remaining lines, values ahead:

Kd [5]: 1.01 nM
B5: AB3-7 conjugated to MC-GGFG-MMAE (D4 technology) (antibody, V domains shown)
VH: B4 VH
VL: B4 VL
modifications: MC-GGFG-MMAE conjugated to the antibody (D4); sites not stated

Kd [5]: 1.91 nM
B7: AB3-7 conjugated to CL2A-SN38 (conventional) (antibody, V domains shown)
VH: B4 VH
VL: B4 VL
modifications: CL2A-SN38 conjugated to the antibody, heterogeneous (conventional); sites not stated

Kd [5]: 2.87 nM
B9: AB3-7 conjugated to CL2A-SN38 (D4 technology) (antibody, V domains shown)
VH: B4 VH
VL: B4 VL
modifications: CL2A-SN38 conjugated to the antibody (D4); sites not stated

FACS signal [2]: 106000
FACS signal [3]: 169000
Kd [5]: 1.13 nM
B10: AB3-7 (antibody, V domains shown)
VH: B4 VH
VL: B4 VL
